In paper PMC3340929:
pKd: −log10 of the molar value.

Target: NFS1–ISD11–ISCU2 protein complex (SDU) (human) (UniProt Q9HD34)
Assay: enzyme activity titration

Row | Substance | pKd
1 | FXN Q153A variant (from UniProt Q16595 82-210) (natural protein) | 5.12
2 | FXN R165C variant (FRDA missense mutation) (from UniProt Q16595 82-210) (natural protein) | 4.98
3 | FXN Q148R variant (FRDA missense mutation) (from UniProt Q16595 82-210) (natural protein) | 6.07
4 | FXN Q148G variant (from UniProt Q16595 82-210) (natural protein) | 5.66
5 | FXN N146K variant (FRDA missense mutation) (from UniProt Q16595 82-210) (natural protein) | 5.20
6 | FXN N146A variant (from UniProt Q16595 82-210) (natural protein) | 5.87
